Source: patent US20110097262A1 (PIERRE FABRE MEDICAMENT, published 2011)

B1: [224G11] [MHchim] (antibody, human IgG1, V domains shown)
VH: EVQLQQSGPELVKPGASVKISCKTSGYIFTAYTMHWVRQSLGESLDWIGGIKPNNGLANYNQKFKGKATLTVDKSSSTAYMDLRSLTSEDSAVYYCARSEITTEFDYWGQGTALTVSS
VL: DIVLTQSPASLAVSLGQRATISCRASESVDSYANSFMHWYQQKPGQPPKLLIYRASNLESGIPARFSGSGSRTDFTLTINPVEADDVATYYCQQSKEDPLTFGSGTKLEMKR
B2: [224G11] [MUP9Hchim] (antibody, human IgG1, V domains shown)
VH: EVQLQQSGPELVKPGASVKISCKTSGYIFTAYTMHWVRQSLGESLDWIGGIKPNNGLANYNQKFKGKATLTVDKSSSTAYMDLRSLTSEDSAVYYCARSEITTEFDYWGQGTALTVSS
VL: DIVLTQSPASLAVSLGQRATISCRASESVDSYANSFMHWYQQKPGQPPKLLIYRASNLESGIPARFSGSGSRTDFTLTINPVEADDVATYYCQQSKEDPLTFGSGTKLEMKR
B3: [224G11] [MMCHchim] (antibody, human IgG1, V domains shown)
VH: EVQLQQSGPELVKPGASVKISCKTSGYIFTAYTMHWVRQSLGESLDWIGGIKPNNGLANYNQKFKGKATLTVDKSSSTAYMDLRSLTSEDSAVYYCARSEITTEFDYWGQGTALTVSS
VL: DIVLTQSPASLAVSLGQRATISCRASESVDSYANSFMHWYQQKPGQPPKLLIYRASNLESGIPARFSGSGSRTDFTLTINPVEADDVATYYCQQSKEDPLTFGSGTKLEMKR
B4: [224G11][TH7chim] (antibody, human IgG1)
heavy: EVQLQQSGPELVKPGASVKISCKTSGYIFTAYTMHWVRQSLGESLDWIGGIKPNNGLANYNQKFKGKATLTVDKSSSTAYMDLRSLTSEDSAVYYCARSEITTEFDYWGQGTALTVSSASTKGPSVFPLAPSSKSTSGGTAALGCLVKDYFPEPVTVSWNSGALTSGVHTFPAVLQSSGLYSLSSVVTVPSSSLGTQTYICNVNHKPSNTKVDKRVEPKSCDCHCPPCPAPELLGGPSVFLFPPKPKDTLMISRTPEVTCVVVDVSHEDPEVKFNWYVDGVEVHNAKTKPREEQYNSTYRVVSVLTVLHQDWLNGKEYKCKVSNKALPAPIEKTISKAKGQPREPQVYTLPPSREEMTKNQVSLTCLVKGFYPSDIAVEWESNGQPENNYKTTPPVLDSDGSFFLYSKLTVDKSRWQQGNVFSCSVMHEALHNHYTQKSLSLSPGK
light: DIVLTQSPASLAVSLGQRATISCRASESVDSYANSFMHWYQQKPGQPPKLLIYRASNLESGIPARFSGSGSRTDFTLTINPVEADDVATYYCQQSKEDPLTFGSGTKLEMKRTVAAPSVFIFPPSDEQLKSGTASVVCLLNNFYPREAKVQWKVDNALQSGNSQESVTEQDSKDSTYSLSSTLTLSKADYEKHKVYACEVTHQGLSSPVTKSFNRGEC
B5: [224G11] [IgG2chim] (antibody)
heavy: EVQLQQSGPELVKPGASVKISCKTSGYIFTAYTMHWVRQSLGESLDWIGGIKPNNGLANYNQKFKGKATLTVDKSSSTAYMDLRSLTSEDSAVYYCARSEITTEFDYWGQGTALTVSSASTKGPSVFPLAPCSRSTSESTAALGCLVKDYFPEPVTVSWNSGALTSGVHTFPAVLQSSGLYSLSSVVTVPSSNFGTQTYTCNVDHKPSNTKVDKTVERKCCVECPPCPAPPVAGPSVFLFPPKPKDTLMISRTPEVTCVVVDVSHEDPEVQFNWYVDGVEVHNAKTKPREEQFNSTFRVVSVLTVVHQDWLNGKEYKCKVSNKGLPAPIEKTISKTKGQPREPQVYTLPPSREEMTKNQVSLTCLVKGFYPSDIAVEWESNGQPENNYKTTPPMLDSDGSFFLYSKLTVDKSRWQQGNVFSCSVMHEALHNHYTQKSLSLSPG
light: DIVLTQSPASLAVSLGQRATISCRASESVDSYANSFMHWYQQKPGQPPKLLIYRASNLESGIPARFSGSGSRTDFTLTINPVEADDVATYYCQQSKEDPLTFGSGTKLEMKRTVAAPSVFIFPPSDEQLKSGTASVVCLLNNFYPREAKVQWKVDNALQSGNSQESVTEQDSKDSTYSLSSTLTLSKADYEKHKVYACEVTHQGLSSPVTKSFNRGEC

Biological target: C-Met-Rluc (R. reniformis, UniProt P08581 25-1390; P27652 1-311)
Test: cell-based or functional assay

Chain of C-Met-Rluc (P08581 other isoform, or with tags, fused parts or gaps): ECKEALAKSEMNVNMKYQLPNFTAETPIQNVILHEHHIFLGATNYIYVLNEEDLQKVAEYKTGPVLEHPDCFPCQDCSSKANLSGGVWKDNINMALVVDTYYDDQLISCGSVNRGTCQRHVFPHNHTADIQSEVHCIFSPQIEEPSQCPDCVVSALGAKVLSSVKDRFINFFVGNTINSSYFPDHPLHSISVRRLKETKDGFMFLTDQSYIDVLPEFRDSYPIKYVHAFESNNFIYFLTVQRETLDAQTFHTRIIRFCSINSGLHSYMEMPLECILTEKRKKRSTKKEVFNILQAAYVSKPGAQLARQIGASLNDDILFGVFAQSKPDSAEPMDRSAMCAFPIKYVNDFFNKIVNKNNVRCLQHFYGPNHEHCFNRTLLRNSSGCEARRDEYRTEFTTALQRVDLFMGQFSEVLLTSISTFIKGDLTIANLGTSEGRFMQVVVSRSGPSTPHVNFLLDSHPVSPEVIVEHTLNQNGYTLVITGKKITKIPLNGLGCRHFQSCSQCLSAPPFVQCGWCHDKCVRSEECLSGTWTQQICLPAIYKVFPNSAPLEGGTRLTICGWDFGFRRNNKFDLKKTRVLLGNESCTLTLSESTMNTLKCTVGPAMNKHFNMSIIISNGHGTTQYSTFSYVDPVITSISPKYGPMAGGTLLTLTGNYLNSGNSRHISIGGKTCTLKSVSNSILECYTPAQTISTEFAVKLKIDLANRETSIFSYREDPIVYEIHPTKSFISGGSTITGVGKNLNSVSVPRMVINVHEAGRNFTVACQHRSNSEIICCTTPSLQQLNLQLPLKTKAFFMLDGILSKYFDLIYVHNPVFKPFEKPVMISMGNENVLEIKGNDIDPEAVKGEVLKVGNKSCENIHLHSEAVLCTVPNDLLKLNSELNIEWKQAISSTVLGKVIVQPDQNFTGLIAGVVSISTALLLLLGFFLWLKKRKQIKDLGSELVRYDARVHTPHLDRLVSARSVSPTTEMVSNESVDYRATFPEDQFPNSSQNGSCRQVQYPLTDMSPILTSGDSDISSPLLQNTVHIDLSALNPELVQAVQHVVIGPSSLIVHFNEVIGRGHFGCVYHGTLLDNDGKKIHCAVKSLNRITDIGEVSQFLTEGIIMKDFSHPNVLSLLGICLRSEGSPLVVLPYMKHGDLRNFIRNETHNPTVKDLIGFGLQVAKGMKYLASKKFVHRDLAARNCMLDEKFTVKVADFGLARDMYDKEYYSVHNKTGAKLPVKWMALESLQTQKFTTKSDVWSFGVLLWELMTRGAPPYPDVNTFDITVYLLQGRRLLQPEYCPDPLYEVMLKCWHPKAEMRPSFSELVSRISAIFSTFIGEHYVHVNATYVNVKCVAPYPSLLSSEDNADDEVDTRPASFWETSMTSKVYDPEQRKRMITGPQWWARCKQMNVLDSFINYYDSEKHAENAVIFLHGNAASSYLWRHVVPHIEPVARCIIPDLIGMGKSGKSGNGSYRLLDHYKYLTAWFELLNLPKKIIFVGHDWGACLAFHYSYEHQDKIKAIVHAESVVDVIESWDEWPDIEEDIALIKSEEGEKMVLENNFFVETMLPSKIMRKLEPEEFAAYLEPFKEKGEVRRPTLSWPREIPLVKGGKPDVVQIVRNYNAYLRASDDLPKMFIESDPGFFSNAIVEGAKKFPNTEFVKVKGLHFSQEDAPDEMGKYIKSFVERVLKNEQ

Row | Binder | BRET signal by Mab alone, c-Met activation model [%] | inhibition of HGF induced BRET signal, c-Met activation model [%]
1 | B1 | 5.1 | –
2 | B2 | 7.6 | –
3 | B3 | -2 | –
4 | B4 | -6.9 | –
5 | B5 | – | 66.3
